T1: Mouse Cerberus 1 homologue (mCer1) recombinant protein (mouse, UniProt O55233 18-272)
T1 chain: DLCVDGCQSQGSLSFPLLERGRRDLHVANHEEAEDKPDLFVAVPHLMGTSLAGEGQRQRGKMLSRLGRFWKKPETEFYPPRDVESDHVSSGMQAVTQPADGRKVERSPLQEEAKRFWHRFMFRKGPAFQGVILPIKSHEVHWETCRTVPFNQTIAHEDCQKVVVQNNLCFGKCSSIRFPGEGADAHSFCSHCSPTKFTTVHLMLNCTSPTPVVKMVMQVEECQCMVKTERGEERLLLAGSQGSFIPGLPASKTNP

B1: hBMP4 (ligand)
chain: SPKHHSQRARKKNKNCRRHSLYVDFSDVGWNDWIVAPPGYQAFYCHGDCPFPLADHLNSTNHAIVQTLVNSVNSSIPKACCVPTELSAISMLYLDEYDKVVLKNYQEMVVEGCGCR
B2: hBMP2 (ligand)
chain: QAKHKQRKRLKSSCKRHPLYVDFSDVGWNDWIVAPPGYHAFYCHGECPFPLADHLNSTNHAIVQTLVNSVNSKIPKACCVPTELSAISMLYLDENEKVVLKNYQDMVVEGCGCR

Molecular target: T1, Mouse Cerberus 1 homologue (mCer1) …
Assay: SPR

| Kd | Binder |
| --- | --- |
| 23.4 nM | B1 |
| 3.38 nM | B2 |

Reference: PMC3219680 (2011)
